Experimental data as given in patent publication US20060121042A1 (AstraZeneca / MedImmune, published 2006).

B1: GEA10-C12 (antibody, V domains shown)
VH: QVQLQESGPGLVKPSGTLSLTCAVSGGSISSSNWWSWVRQPPGKGLEWIGEIYHSGSTNYNPSLKSRVTISVDKSKNQFSLKLSSVTAADTAVYYCARGGIAAAGYWGLGYNWFDPWGQGTLVTVSS
VL: QSVLTQPPSVSGAPGQRVTISCTGSSSNIGAGYDVHWYQQLPGTAPKLLIYGNSNRPSGVPDRFSGSKSGTSASLAITGLQAEDEADYYCQSYDNSLSGSVVFGGGTKLTVL
B2: human Anti-Eph Monoclonal Antibody GEA44 (antibody, V domains shown)
VH: QVQLLQSGAEVKKPGASVKVPCKASGYTFTSYAMSWVRQAPGQGLEWMGWINTNTGNPTYAQGFTGRFVFSLDTSVSTAYLQISSLKAEDTAVYYCARVRTTVYGDGMDVWGQGTLVTVSS
VL: EIVLTQSPATLSVSPGERATLSCRASQSVSSNLAWYQQKPGQAPRLLIYGASTRATGIPDRFSASGSGTDFTLTISRVEPEDFAVYYCQQYGSSWTFGQGTKVEIK
notes: also called mAb GEA44; parental mAb GEA44

Assays:
Experiment in all cases: ELISA
[1] = molecular target: T1, rrEphB1 (rat, UniProt P09759)
T1 sequence (receptor, looked up): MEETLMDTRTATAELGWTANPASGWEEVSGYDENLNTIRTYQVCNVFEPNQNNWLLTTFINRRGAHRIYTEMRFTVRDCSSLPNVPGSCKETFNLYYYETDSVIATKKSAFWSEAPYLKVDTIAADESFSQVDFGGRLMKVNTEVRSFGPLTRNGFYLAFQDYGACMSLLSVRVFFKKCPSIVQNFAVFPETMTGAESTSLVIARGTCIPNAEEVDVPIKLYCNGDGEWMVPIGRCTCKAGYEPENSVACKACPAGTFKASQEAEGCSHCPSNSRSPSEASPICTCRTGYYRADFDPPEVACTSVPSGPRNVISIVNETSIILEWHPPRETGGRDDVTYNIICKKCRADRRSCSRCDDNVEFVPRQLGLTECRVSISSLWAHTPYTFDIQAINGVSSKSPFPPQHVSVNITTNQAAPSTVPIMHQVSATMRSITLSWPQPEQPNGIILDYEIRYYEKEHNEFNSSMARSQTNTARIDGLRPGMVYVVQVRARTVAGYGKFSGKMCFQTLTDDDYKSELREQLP

[2] = molecular target: T2, rmEph B2 (mouse, UniProt P54763)
T2 sequence (receptor, looked up): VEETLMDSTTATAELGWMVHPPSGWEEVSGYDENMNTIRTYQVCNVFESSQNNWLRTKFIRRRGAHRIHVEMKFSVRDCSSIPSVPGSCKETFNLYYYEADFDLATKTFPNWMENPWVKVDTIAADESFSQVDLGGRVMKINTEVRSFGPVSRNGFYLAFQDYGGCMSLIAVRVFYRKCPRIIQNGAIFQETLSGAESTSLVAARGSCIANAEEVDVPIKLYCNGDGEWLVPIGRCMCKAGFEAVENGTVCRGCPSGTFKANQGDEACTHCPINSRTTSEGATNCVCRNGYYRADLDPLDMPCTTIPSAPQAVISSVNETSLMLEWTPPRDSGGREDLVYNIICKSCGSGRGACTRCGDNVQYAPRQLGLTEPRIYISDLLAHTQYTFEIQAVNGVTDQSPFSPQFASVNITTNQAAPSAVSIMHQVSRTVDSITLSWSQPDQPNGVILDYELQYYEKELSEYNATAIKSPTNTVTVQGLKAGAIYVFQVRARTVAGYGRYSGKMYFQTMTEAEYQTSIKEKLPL

[3] = molecular target: T3, rmEph B3 (mouse, UniProt P54754)
T3 sequence (receptor, looked up): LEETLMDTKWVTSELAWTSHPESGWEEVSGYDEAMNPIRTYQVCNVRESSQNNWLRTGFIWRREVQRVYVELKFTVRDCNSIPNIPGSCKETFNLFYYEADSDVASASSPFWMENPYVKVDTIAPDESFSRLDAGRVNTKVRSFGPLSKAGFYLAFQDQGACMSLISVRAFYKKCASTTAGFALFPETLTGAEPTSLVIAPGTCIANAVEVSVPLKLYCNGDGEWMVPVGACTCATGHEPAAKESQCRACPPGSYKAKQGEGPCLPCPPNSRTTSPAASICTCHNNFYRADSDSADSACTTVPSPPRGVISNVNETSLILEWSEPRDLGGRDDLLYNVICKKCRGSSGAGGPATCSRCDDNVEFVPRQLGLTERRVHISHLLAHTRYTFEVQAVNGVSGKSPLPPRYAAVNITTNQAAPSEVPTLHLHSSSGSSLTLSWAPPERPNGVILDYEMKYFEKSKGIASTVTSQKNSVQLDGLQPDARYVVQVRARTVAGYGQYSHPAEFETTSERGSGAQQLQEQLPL

[4] = molecular target: T4, mEph A7 (mouse, UniProt Q61772)
T4 sequence (receptor, looked up): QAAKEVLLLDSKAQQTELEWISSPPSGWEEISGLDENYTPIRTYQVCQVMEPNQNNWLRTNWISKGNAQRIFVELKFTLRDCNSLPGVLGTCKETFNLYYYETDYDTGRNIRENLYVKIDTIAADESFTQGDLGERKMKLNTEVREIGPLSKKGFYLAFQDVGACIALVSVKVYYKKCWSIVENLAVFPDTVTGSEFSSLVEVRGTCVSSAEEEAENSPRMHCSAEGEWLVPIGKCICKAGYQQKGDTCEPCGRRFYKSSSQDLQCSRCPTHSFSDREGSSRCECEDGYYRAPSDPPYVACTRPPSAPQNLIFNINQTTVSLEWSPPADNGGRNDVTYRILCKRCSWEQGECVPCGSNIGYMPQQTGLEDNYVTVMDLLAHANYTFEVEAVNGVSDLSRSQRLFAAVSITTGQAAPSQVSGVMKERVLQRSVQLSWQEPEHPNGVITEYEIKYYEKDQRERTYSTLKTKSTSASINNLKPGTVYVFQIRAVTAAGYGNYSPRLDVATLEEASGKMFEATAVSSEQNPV

[5] = molecular target: mEph A4 (mouse, UniProt Q03137)
Chain of mEph A4 (Q03137 20-547 limits assumed): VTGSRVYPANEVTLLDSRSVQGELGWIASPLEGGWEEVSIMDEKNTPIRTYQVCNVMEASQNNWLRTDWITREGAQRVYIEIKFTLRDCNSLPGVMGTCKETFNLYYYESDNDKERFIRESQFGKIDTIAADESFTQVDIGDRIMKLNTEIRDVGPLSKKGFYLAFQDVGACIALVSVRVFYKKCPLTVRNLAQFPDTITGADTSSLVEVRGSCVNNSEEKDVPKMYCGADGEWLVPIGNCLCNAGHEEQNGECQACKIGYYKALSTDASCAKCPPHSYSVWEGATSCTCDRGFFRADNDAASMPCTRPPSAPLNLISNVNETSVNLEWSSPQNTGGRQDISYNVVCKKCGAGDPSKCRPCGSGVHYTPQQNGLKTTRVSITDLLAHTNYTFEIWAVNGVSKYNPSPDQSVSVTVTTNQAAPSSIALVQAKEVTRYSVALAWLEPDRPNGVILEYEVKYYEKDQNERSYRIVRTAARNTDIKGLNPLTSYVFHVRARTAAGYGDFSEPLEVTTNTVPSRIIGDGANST

[6] = molecular target: T5, mEph A3 (mouse, UniProt P29319)
T5 sequence (receptor, looked up): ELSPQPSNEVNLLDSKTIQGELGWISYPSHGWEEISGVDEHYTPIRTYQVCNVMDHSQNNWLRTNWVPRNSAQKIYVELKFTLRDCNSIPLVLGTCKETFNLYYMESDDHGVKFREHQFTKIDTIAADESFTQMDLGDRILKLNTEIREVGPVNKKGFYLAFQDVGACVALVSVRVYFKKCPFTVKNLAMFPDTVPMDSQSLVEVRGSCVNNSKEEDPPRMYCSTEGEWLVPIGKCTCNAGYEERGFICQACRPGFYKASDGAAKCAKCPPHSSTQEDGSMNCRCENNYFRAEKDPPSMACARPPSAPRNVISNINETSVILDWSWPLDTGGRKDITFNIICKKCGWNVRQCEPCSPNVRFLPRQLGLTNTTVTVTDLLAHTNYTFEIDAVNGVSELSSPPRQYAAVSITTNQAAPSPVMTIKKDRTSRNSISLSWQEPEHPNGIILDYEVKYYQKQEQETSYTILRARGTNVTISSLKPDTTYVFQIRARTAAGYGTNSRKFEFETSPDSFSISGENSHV

[7] = molecular target: T6, human EphA4 (construct not given) (human, UniProt P54764 20-547, limits assumed)
T6 construct: also called EphA4 receptor
T6 sequence (P54764 20-547 limits assumed): as the sequence (Q03137 20-547 limits assumed) above, with A59P, S121N, G124V, Q250R, N251S, S270T, R378K, S406N counted along it

[8] = molecular target: T7, hEphA2 (human, UniProt P29317)
T7 construct: also called human EphA2
T7 sequence (P29317 25-534 limits assumed): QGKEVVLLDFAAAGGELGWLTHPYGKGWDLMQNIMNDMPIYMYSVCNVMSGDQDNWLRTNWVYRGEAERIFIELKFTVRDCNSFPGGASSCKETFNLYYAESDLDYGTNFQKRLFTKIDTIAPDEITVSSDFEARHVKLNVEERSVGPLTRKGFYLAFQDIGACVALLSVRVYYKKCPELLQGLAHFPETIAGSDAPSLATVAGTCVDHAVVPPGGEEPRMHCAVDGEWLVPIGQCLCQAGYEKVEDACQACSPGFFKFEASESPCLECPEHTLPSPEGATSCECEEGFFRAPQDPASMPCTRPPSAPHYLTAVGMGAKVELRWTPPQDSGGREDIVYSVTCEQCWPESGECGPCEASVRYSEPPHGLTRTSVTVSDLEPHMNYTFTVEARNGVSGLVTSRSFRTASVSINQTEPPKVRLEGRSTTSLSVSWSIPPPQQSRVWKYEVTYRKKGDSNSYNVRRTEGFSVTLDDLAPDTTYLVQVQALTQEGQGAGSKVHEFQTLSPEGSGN

[9] = molecular target: mEph A2 (mouse, UniProt Q03145)
Chain of mEph A2 (Q03145 26-535 limits assumed): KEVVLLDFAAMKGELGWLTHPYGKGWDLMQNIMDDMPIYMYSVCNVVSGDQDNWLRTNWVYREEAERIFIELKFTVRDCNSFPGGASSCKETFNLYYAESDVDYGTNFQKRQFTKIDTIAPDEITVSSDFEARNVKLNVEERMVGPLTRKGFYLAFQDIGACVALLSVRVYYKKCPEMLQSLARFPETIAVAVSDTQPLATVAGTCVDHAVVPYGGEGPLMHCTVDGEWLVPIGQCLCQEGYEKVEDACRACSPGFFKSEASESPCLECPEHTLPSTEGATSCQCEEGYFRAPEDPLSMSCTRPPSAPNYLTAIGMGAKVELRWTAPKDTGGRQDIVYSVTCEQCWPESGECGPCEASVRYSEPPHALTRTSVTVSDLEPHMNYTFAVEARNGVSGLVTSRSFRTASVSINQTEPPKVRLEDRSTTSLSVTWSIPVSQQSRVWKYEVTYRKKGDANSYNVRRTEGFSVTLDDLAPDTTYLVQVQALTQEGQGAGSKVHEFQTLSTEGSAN

| Binder | ELISA O.D. value [1] | ELISA O.D. value [2] | ELISA O.D. value [3] | ELISA O.D. value [4] | ELISA O.D. value [5] | ELISA O.D. value [6] | ELISA O.D. value [7] | binding result [1] | binding result [3] | ELISA O.D. value [8] | ELISA O.D. value [9] |
| --- | --- | --- | --- | --- | --- | --- | --- | --- | --- | --- | --- |
| B1 | 0.823 | 0.264 | 0.377 | 0.132 | 0.253 | 0.116 | 0.267 |  |  |  |  |
| B2 |  | 0.535 |  |  |  |  |  | binds | binds | 0.783 | 0.792 |
